Assay results as given in US20190016816A1 (APTEVO RESEARCH AND DEVELOPMENT, published 2019).

What was measured:
FcγRIIb (CD32b) = biological target: T1, FcγRIIb (CD32b) (UniProt P31994 43-310, limits assumed); assay: flow cytometry, CHO cells stably expressing CD32b, fluorescent anti-human IgG secondary, MFI (mean)
T1 construct: whole, on cells
T1 sequence (looked up): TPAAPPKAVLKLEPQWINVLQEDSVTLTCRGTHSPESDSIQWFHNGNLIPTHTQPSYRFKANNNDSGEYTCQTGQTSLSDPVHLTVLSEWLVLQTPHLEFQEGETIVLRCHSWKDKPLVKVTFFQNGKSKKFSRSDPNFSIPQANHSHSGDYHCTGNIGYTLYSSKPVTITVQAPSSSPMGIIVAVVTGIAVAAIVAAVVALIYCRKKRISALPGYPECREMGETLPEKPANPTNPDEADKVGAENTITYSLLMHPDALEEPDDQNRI
Excerpt: (§1) ALG.APV-210 contains mutations introduced to prevent interaction with Fcγ receptors (FcγR) that could lead to FcγR-mediated T-cell activation or ADCC, ADCP, CDC etc. Binding of ALG.APV-210 was therefore tested on CHO cell transfectants stably expressing the following FcγR: FcγRI (CD64), FcγRIIa (CD32a His131), FcγRIIb (CD32b), FcγRIIIa (CD16a Val158 and CD16a Phe158), and FcγRIIIb (CD16b). Untransfected CHO cells were used as negative control. A control human IgG1 molecule was used as a positive control. Different concentrations of ALG.APV-210 or control IgG1 were incubated with the FcγR-expressing cell lines, washed, and labeled with a secondary anti-human IgG reagent. Binding of ALG.APV-210 and the control IgG1 was detected by flow cytometry.

FcγRIIa (CD32a His131) = biological target: T2, FcγRIIa (CD32a His131) (UniProt P12318 34-317, limits assumed); assay: flow cytometry, CHO cells stably expressing CD32a His131, fluorescent anti-human IgG secondary, MFI (mean)
T2 construct: whole, on cells; allotype His131 as printed
T2 sequence (looked up): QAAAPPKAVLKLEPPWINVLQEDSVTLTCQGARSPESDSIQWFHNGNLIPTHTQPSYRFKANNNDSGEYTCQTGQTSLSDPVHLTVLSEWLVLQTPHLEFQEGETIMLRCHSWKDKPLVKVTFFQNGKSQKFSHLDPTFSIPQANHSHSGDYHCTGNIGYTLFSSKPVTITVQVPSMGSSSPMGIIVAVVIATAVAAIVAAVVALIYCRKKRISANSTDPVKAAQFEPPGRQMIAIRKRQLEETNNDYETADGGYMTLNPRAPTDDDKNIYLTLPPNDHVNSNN
Excerpt: as §1

human 5T4 on cells [1] = biological target: T3, human 5T4 on cells (human, UniProt Q13641 32-420); assay: flow cytometry, CHO-hu5T4 cells, streptavidin-PE, normalized MFI of 2 pooled experiments
T3 construct: also called TPBG; hu5T4
T3 sequence: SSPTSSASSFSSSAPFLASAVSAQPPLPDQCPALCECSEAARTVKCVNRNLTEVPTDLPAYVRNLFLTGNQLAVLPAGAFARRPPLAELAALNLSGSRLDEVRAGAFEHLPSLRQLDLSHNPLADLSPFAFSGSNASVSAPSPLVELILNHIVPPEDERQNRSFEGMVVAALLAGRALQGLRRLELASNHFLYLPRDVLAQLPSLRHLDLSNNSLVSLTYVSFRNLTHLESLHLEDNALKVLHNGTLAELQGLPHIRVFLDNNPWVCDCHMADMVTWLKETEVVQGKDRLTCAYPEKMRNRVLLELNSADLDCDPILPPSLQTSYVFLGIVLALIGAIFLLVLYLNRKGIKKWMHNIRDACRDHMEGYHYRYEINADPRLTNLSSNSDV
Protocol: (§2) Prior to the FACS staining, all cell lines were characterized for their 5T4 expression levels using a receptor density kit (Quantum Simply Cellular, anti-human IgG, Bangs Laboratories, Inc). Adherent cell lines were cultured according to their supplier's instructions and were harvested from their cell culture flasks using Trypsin/EDTA, counted in R10 medium in a Burker chamber, and diluted in FACS buffer (PBS+0.5% BSA, 0.05% NaN₃) to a concentration of 4×10⁶ cells/mL. 50 μL (0.20×10⁶) of cell solution was added to a 96-well FACS staining plate (Falcon #351190). Cells were incubated for 20 min in 4° C. with 50 μL of the biotinylated ALG.APV-210 (2× final concentration). The antibodies were added in a serial dilution starting at 20 μg/mL titrating down in a 12 step ½ dilution down to 0.010 μg/mL. Following 2× washing with FACS buffer, cells were incubated for 30 min in 4° C. with 100 μL of a secondary antibody (streptavidin-PE, BD #554061, diluted 1/500). […] Cells were analysed for ALG.APV-210 binding using flow cytometry (FACSVerse) by gating on single cells. MFI values (secondary antibody only subtracted) from 1 out of 2 independent experiments, as well as normalized data and EC₅₀-values of pooled data from 2 experiments were determined and plotted using GraphPad Prism 7, non-linear regression log (agonist) vs. normalized response—variable slope.

human 5T4 on cells [2] = biological target: T3, human 5T4 on cells; assay: flow cytometry, CT26 cells transfected with human 5T4 (low clone), biotinylated ALG.APV-210 + streptavidin-PE, 1 of 2 experiments
Protocol: as §2, with “μg/mL.” for “μg/mL. Following 2× washing with FACS buffer, cells were incubated for 30 min in 4° C. with 100 μL of a secondary antibody (streptavidin-PE, BD #554061, diluted 1/500).”
The binding (EC₅₀) of the biotinylated ALG.APV-210 to 5T4 when expressed on cells, either at endogenous levels on human tumor cells or on cells transfected to express 5T4 was assessed. […]

human CD137 on cells = biological target: T4, human CD137 on cells (human, UniProt Q07011 24-255); assay: flow cytometry, CHO-K1 cells expressing human CD137, PE anti-human IgG Fc secondary, MFI (median)
T4 construct: also called 4-1BB; TNFRSF9 (CHO-K1/human CD137 cells)
Protocol: Binding studies on CHO-K1 cells lines expressing CD137 were performed by standard flow cytometry-based staining procedures. CHO-K1 cells (generated by Alligator) were transfected with human or cynomolgus macaque CD137. A typical experiment would label approximately 100,000 cells per well, in 96-well plates, with a range of 100 nM to 0.05 nM binding molecule in 50 μL of saline buffer with 2% BSA and 2 mM EDTA, for 30 min on ice, followed by washes and incubation with PE-labeled secondary antibody, goat anti-human IgG Fcγ ([…]), for 20 minutes on ice. Signal from bound molecules was detected using a LSR-II™ or a Symphony A3 flow cytometer (BD Biosciences) and analyzed by FlowJo flow cytometry analysis software. Median fluorescence intensity (MFI-median) of bound molecules on live cells was determined after exclusion of doublets cells. Nonlinear regression analysis to determine EC₅₀ values was performed in GraphPad Prism 6® graphing and statistics software.

T4 sequence (Q07011 24-255 limits assumed): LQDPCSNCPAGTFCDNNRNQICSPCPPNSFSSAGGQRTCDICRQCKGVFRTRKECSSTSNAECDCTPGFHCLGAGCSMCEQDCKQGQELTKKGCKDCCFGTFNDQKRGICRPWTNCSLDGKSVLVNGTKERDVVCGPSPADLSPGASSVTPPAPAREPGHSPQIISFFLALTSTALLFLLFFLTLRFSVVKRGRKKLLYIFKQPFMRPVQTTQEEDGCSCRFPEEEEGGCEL

B1: ALG.APV-210 (bispecific antibody)
chain: EVQLLESGGGLVQPGGSLRLSCAASGFTFSHGSMYWVRQAPGKGLEWVSSISSGSGSTYYADSVKGRFTISHDNSKNTLYLQMNSLRAEDTAVYYCARSSYYGSYYSIDYWGQGTLVTVSSGGGGSGGGGSGGGGSGGGGSDIQMTQSPSSLSASVGDRVTITCRASQSISSYLNWYQQKPGKAPKLLIYAASSLQSGVPSRFSGSGSGTDFTLTISSLQPEDFATYYCQQYYDNLPTFGQGTKLEIKEPKSSDKTHTCPPCPAPEAAGAPSVFLFPPKPKDTLMISRTPEVTCVVVDVSHEDPEVKFNWYVDGVEVHNAKTKPREEQYNSTYRVVSVLTVLHQDWLNGKEYKCAVSNKALPAPIEKTISKAKGQPREPQVYTLPPSRDELTKNQVSLTCLVKGFYPSDIAVEWESNGQPENNYKTTPPVLDSDGSFFLYSKLTVDKSRWQQGNVFSCSVMHEALHNHYTQKSLSLSPGSGGGGSGGGGSGGGGSPSEVQLLESGGGLVQPGGSLRLSCAASGFTFSSYAMSWVRQAPGKCLEWVSAISGSGGSTYYADSVKGRFTISRDNSKNTLYLQMNSLRAEDTAVYYCARYYGGYYSAWMDYWGQGTLVTVSSGGGGSGGGGSGGGGSGGGGSDIQMTQSPSSLSASVGDRVTITCRASQSISSFLNWYQQKPGKAPKLLIYAASSLQSGVPSRFSGSGSGTDFTLTISSLQPEDSATYYCQQTYGYLHTFGCGTKLEIKR
notes: Optimized ADAPTIR scFv-Fc-scFv homodimer with stabilizing disulfide in the 1210 scFv; also called 5T4-CD137 bispecific antibody
Q: Does B1 bind (FcγRIIb (CD32b))?
A: no binding (tested: 1000 nM)

Q: Does B1 bind (FcγRIIa (CD32a His131))?
A: no binding (tested: 1000 nM)

B2: biotinylated ALG.APV-210 (bispecific antibody)
chain: B1 chain
notes: also called ALG.APV-210 (biotinylated for FACS detection)
Q: What does the source list for B2?
A: EC50 (human 5T4 on cells [1]): 23 nM; EC50 (read off the curve) (human 5T4 on cells [2]): ~10 nM

B3: ALG.APV-187 (bispecific antibody)
chain: EVQLLESGGGLVQPGGSLRLSCAASGFTFSHGSMYWVRQAPGKGLEWVSSISSGSGSTYYADSVKGRFTISHDNSKNTLYLQMNSLRAEDTAVYYCARSSYYGSYYSIDYWGQGTLVTVSSGGGGSGGGGSGGGGSGGGGSDIQMTQSPSSLSASVGDRVTITCRASQSISSYLNWYQQKPGKAPKLLIYAASSLQSGVPSRFSGSGSGTDFTLTISSLQPEDFATYYCQQYYDNLPTFGQGTKLEIKSSEPKSSDKTHTCPPCPAPEAAGAPSVFLFPPKPKDTLMISRTPEVTCVVVDVSHEDPEVKFNWYVDGVEVHNAKTKPREEQYNSTYRVVSVLTVLHQDWLNGKEYKCAVSNKALPAPIEKTISKAKGQPREPQVYTLPPSRDELTKNQVSLTCLVKGFYPSDIAVEWESNGQPENNYKTTPPVLDSDGSFFLYSKLTVDKSRWQQGNVFSCSVMHEALHNHYTQKSLSLSPGSGGGGSGGGGSGGGGSPSEVQLLESGGGLVQPGGSLRLSCAASGFTFSSYAMSWVRQAPGKCLEWVSAISGSGGSTYYADSVKGRFTISRDNSKNTLYLQMNSLRAEDTAVYYCARYYGGYYSAWMDYWGQGTLVTVSSGGGGSGGGGSGGGGSGGGGSDIQMTQSPSSLSASVGDRVTITCRASQSISSFLNWYQQKPGKAPKLLIYAASSLQSGVPSRFSGSGSGTDFTLTISSLQPEDSATYYCQQTYGYLHTFGCGTKLEIKR
notes: Optimized ADAPTIR scFv-Fc-scFv homodimer with stabilizing disulfide in the 1210 scFv
Q: B3 was tested. Which EC50 (human CD137 on cells) did it give?
A: 0.9 nM
